According to patent US20130309230A1 (published 2013):

Molecular target: T1, UC4F10-11 hamster anti-mouse CTLA4 antibody
T1 construct: also called mouse anti-CTLA4 antibody (clone UC4 F10-11); anti-CTLA4
Assay: bacterial display / FACS screening with labelled anti-CTLA4 antibody
Experimental: Subsequent rounds of enrichment were carried out using FACS. For the initial round of FACS, bacteria were sorted using biotinylated target (5 nM) and secondary labeling step with streptavidin phycoerythrin. […] Relative affinity and off-rate screening of individual clones were performed using a ficin digested Dylight-labeled Fab antibody fragment to reduce avidity effects of the bivalent antibody due to the expression of multiple peptides on the bacterial surface. As an additional test of target specificity, individual clones were screened for binding in the presence of 20 uM E. Coli depleted IgG as a competitor.

T1 sequence (VH, as listed by the source limits assumed, chain 1 of 2): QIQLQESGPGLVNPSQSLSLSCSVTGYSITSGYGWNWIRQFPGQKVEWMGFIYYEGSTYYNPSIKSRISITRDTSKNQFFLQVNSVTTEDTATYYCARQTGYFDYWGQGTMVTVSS
T1 sequence (VL, as listed by the source limits assumed, chain 2 of 2): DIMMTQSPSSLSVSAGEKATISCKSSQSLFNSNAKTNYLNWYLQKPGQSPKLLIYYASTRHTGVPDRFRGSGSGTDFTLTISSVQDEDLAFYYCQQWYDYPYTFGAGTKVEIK

B1: Negative control (does not bind anti-CTLA4) (peptide)
peptide: PCSEWQSMVQPRCYY
notes: The printed peptide has A where the printed DNA encodes Q; also called MMneg; negative control MM
  binding result: no binding
